20 sequences from the Immune Epitope Database (IEDB) can be followed below.

pIC50: −log10 of the molar value.

The first assay has as its target HLA-B*44:03. Briefly: IEDB peptide-MHC binding, purified MHC/competitive/radioactivity; ≥ and ≤ were set here for values at or beyond the usual limits of such assays. As to conditions: source organism: Bordetella pertussis.
For the sequence VEVSSPPPV, the negative-log IC50 (pIC50) was 4.54.

As for AESSEAMAA, the pIC50 was 5.12.

On to IETGGARRF, for which the negative-log IC50 (pIC50) was 4.66.

As for AEATQLVTA, the negative-log IC50 (pIC50) is 5.66.

In the case of FELGADHAV, the pIC50 was at most 4.11.

The target in another assay is HLA-B*57:01. The description is as above. As to conditions: source organism: Bordetella pertussis.
On to DASGQHRLW, for which the negative logarithm of the IC50 (pIC50) is at most 4.15.

RGWSIFALY: the pIC50 is 5.98.

Consider KGPKLAMPW, for which the negative logarithm of the IC50 (pIC50) is 5.31.

As to VSVKVAKKL, the negative-log IC50 (pIC50) is 4.43.

In another assay the target is HLA-B*53:01. The description is as above. As to conditions: source organism: Bordetella pertussis.
On to DASGQHRLW, for which the pIC50 is 4.59.

For PAPTAPPMP, the pIC50 is 4.27.

As to KPLADIAVI, the negative-log IC50 (pIC50) is 4.80.

Take YPALRAALI: the pIC50 is 5.02.

A further assay concerns the target HLA-B*35:01. Described as above. As to conditions: source organism: Bordetella pertussis.
KAAKSVNLM: the negative-log IC50 (pIC50) was 4.30.

For the sequence HAEHEKDVR, the pIC50 is 4.16.

For the sequence AAESTFESY, the negative-log IC50 (pIC50) is 4.35.

On to LPTHLYKNF, for which the pIC50 is 4.98.

For another assay, the target named is HLA-B*07:02. Described as above. As to conditions: source organism: Bordetella pertussis.
Take HVRGMLVPV: the pIC50 was 5.21.

Turning to GAPAAVSVL, the negative logarithm of the IC50 (pIC50) is 4.16.

For the next assay, the target named is HLA-A*02:01. The description is as above. As to conditions: source organism: Bordetella pertussis.
Take VIDGQKVLA: the negative logarithm of the IC50 (pIC50) was 4.45.

For the sequence TLNASNLTL, the pIC50 was 5.35.

The pIC50 is −log10 of the IC50, conventionally taken in molar units.
